{
  "source": "paper PMC6591006",
  "target": "Monoclonal anti-HIV-1 Env SF12 (IgG)",
  "test": "ELISA",
  "settings": "highest antibody concentration of the titration (last point of the curve, between 1 and 10 µg/ml); parent: est. 3.3; read off a plot",
  "data": [
    {"substance": "YU2 gp140 foldon trimer (wild type) A281T; D368K", "values": [
      {"measurement": "response", "value": 2.7, "unit": "OD"}
    ]}
  ]
}
